Assay: Fatty acid binding of fluorescently labeled I-FABP probes (fluorescence ratio)
Details: FFA binding; ADIFAB2 compared with ADIFAB
Description: In a preferred embodiment, a fluorescently-labeled FABP is acrylodan-derived recombinant rat intestinal fatty acid binding protein (referred to as ADIFAB). Derivatization with acrylodan was performed using known methods substantially as previously described (U.S. Pat. No. 5,470,714 & Richieri, G. V, et al., J. Biol. Chem., (1992) […]: 23495–23501), and ADIFAB is commercially available (FFA Sciences LLC, San Diego, Calif. ). Concentrations of FFAu can be determined by the binding of the FFAu to the fluorescently labeled fatty acid binding protein (FABP). […] The concentration of FFAu can be determined from the fluorescence difference. […] It will be understood that those skilled in the art can readily substitute other fluorescently-labeled FABP in the disclosed assay.
The assay for determination of FFAu levels in aqueous samples measures the intensity of a shift in fluorescence from a first wavelength, at which the derivatized FABP fluoresces when no FFA is bound, to a second wavelength, at which the derivatized FABP fluoresces when a molecule of FFA is bound, and the concentration of FFAu is then determined from the ratio (“R” value) of the two intensities of fluorescence wavelengths as described in U.S. Pat. No. 5,470,714 and Richieri, et al. (1995) J. Lipid Research, vol. […] Briefly, the ratio is calculated using the following formula: […]

B1: ADIFAB2: acrylodan-derivatized rat intestinal fatty acid binding protein (I-FABP) with substitution of Ala for Leu at position 72 (protein, UniProt P02693 2-132, looked up, variant L72A)
Fatty acid-binding protein, …: AFDGTWKVDRNENYEKFMEKMGINVVKRKLGAHDNLKLTITQEGNKFTVKESSNFRNIDVVFELGVDFAYSAADGTELTGTWTMEGNKLVGKFKRVDNGKELIAVREISGNELIQTYTYEGVEAKRIFKKE
modifications: acrylodan label
In the case of B1, the “binding affinities relative to ADIFAB” value is reported as “about 10 fold”.

Source: patent US7202089B2, “Early diagnosis of stroke” (priority 2001, dated 2007)
